Data on 16 molecules can be found in patent US20200339648A1 (University of Washington, published 2020).

Changes are numbered by the printed parent chain.

The chains are these.
T1: mouse IL-2Rβγc on murine cells (CTLL-2 T cells, primary CD4+ T cells) (mouse, UniProt P16297 27-539; P34902 23-369)
T1 sequence (looked up) 1: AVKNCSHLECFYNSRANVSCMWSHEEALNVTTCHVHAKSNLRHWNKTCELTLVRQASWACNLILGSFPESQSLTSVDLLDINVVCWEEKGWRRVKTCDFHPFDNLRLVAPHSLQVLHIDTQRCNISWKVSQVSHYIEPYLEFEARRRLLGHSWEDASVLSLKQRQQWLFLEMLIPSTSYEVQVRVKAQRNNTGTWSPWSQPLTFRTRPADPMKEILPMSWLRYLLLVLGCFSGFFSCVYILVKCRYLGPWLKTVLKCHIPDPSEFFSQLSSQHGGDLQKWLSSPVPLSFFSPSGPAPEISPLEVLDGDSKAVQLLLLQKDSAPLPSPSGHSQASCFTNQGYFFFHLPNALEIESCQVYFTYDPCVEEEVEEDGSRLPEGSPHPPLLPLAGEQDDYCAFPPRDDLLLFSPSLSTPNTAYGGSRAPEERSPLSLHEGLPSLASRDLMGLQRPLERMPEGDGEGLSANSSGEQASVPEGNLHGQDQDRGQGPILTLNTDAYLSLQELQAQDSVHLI
T1 sequence (looked up) 2: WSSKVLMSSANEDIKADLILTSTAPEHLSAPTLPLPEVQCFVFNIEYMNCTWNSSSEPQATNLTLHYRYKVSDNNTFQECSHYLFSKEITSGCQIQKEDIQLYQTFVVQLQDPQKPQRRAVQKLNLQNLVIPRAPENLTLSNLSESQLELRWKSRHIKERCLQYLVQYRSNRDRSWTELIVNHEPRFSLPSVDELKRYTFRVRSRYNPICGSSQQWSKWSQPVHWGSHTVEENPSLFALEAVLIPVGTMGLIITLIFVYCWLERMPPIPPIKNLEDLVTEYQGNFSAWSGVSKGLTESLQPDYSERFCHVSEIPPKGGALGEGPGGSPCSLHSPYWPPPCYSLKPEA

T2: mouse IL-2 receptor βγc heterodimer (mIL-2Rβγc), soluble (mouse, UniProt P16297 27-240; P34902 23-263, biotin on the C-terminal biotin acceptor peptide)
T2 construct: extracellular domain; also called MmIL-2Rβγc; mIL-2Rβνc
T2 sequence 1: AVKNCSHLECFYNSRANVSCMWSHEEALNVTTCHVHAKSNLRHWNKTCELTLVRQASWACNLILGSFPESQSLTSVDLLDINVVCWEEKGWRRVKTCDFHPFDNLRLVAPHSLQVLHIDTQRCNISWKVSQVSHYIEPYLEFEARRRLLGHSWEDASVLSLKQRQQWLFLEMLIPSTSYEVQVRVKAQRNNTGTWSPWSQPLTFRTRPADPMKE
T2 sequence 2: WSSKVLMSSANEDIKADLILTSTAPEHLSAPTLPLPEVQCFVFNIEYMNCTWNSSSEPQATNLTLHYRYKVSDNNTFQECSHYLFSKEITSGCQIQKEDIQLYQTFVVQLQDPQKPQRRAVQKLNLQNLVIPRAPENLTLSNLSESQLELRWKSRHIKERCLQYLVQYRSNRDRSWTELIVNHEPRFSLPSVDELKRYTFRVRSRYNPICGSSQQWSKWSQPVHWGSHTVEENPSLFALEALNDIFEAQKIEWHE

T3: mouse IL-2 receptor β subunit (mIL-2Rβ) (mouse, UniProt P16297 27-240, biotin on the C-terminal biotin acceptor peptide)
T3 construct: extracellular domain; Biotinylated form for SPR; also called MmIL-2Rβ; murine IL-2Rβ
T3 sequence: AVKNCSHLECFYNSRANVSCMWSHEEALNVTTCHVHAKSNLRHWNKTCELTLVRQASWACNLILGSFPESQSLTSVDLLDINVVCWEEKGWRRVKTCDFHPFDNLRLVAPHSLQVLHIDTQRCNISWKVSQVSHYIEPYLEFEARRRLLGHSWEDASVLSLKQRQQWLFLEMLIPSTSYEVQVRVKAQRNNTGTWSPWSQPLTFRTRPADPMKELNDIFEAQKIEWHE

B1: G2_neo2_40_1F_dsn40 (designed binder)
chain: PEKKRQLLAEHALLDALMILNIIRTNSDNTESKLEDYISNLKVILEEIARLMESLGLSDEAEKAKEAMRLADKAGSTASEEEKKEAMNRVITWAQSWIFN
notes: E. coli, N-terminal 6xHis tag and thrombin site
B2: G2_neo2_40_1F_seq12 (designed binder)
chain: TEKKLQLLVEHALLDALMILNLWSESNEKLNRIITTMQSWIFTGRIDPDKAEELAKLVEELREEARERGIDTEDYVSNLKVILKELS
B3: G2_neo2_40_1F_dsn30 (designed binder)
chain: PEKKRQLLLEHILLDALMLLNLLETNPQNTESKFEDYISNAEVIAEELAKLMESLGLSDEAEKFKKIKQWLREVWRIWSSTNWSTLEDKARELLNRIITTIQSQIFY
notes: as for B1
B4: G2_neo2_40_1F_seq27 (designed binder)
chain: TKKKAQLLAEHALLDALMLLNLSSESNERLNRIITWLQSIIFTGTYDPDMVKEAVKLADEIEDEMRKRGIDTEDYVSNLRVILQELA
B5: G2_neo2_40_1F_seq26 (designed binder)
chain: TKKKYQLLIEHALLDALMILNLWSESNEKLNRIITTMQSWIFTGTYDPDKAEELEKLAKEIEDEARERGIDTEDYMSNLRVILKELS
B6: G2_neo2_40_1F_seq16 (designed binder)
chain: TKKKIQLLVEHALLDALMILNLSSKSNEKLNRIITTMQSWIFNGTIDPDRARELAKLVEEIRDEMEKNGIDTEDYVSNLKVILEELA
B7: G2_neo2_40_1F_seq04 (designed binder)
chain: TTKKIQLLVEHALLDALMILNLSSESNEKLNRIITTLQSWIFRGEIDPDRARELAKLLEEIREEMRKRGIDTEDYVSNMIVIIRELA
B8: G2_neo2_40_1F_dsn29 (designed binder)
chain: EDYYSNLKVILEELAREMERNGLSDKAEEWRQWKKIVERIRQIRSNNSDLNEAKELLNRLITYIQSQIFEISERIRETDQEKKEESWKKWQLLLEHALLDVLMLLND
notes: as for B1
B9: G1_neo2_40_1F_M3 (designed binder)
chain: STEKTQHAAEDALRDALMLRNLLNEPNEKLARIITTMQSWQFTEKIDGDGAQELAKEVEELQQEHEVRGIDVEDYASNLKVILLQLA
B10: G1_neo2_40_1F_M1 (designed binder)
chain: B9 chain with H7L, D11H, R20K, N21H, E44G, Q85H
B11: G1_neo2_40_1F_M2 (designed binder)
chain: B9 chain with E3K, K4N, H7L, R14L, V67E
B12: G1_neo2_40_1F_H1 (designed binder)
chain: STKKTQLLIEHALLDALDMSRNLPEPNEKLSRIITTMQSWIFTGKIDGDGAQQLAKEVEELEQEHEKRGEDVEDEASNLKVILLELA
B13: G1_neo2_40_1F_H4 (designed binder)
chain: B12 chain with I9L, D18H, N22E, S31N, T36D, Q53D, E70G, E75Y
B14: G1_neo2_40_1F_H5 (designed binder)
chain: B12 chain with D18H, N22K, Q53H, E70G, D71E
B15: G1_neo2_40_1F_H2 (designed binder)
chain: B12 chain with I9L, D18H, S20R, Q53E, E70R, E75D
B16: G1_neo2_40_1F_H3 (designed binder)
chain: B12 chain with D18N, S20R, R21K, N22K, T36D, E70G, E75Y

One test addresses T1, mouse IL-2Rβγc on murine cells (CTLL-2 …). As to the kind of experiment: cell-based or functional assay.
As to B1, the “EC50 (CD25+) pSTAT5, murine T (CTLL-2, CD25+) cells” value (from here on “EC50 (CD25+) pSTAT5, murine T”) is 0.5 nM.

Turning to B2, the “EC50 (CD25+) pSTAT5, murine T” value was found to be 1.74 nM.

With B3, the “EC50 (CD25+) pSTAT5, murine T” value came out at 7.61 nM.

With B4, the “EC50 (CD25+) pSTAT5, murine T” value is 0.24 nM.

As to B5, the “EC50 (CD25+) pSTAT5, murine T” value was found to be 1.06 nM.

Turning to B6, the “EC50 (CD25+) pSTAT5, murine T” value is 2.2 nM.

Regarding B7, the “EC50 (CD25+) pSTAT5, murine T” value is 1.95 nM.

With B8, the “EC50 (CD25+) pSTAT5, murine T” value came out at 0.48 nM.

Regarding B9, the “EC50 (CD25+) pSTAT5, murine T” value stood at 80 pM.

In the case of B10, the “EC50 (CD25+) pSTAT5, murine T” value was 7 pM.

Take B11: the “EC50 (CD25+) pSTAT5, murine T” value stood at 3.11 nM.

Regarding B12, the “EC50 (CD25+) pSTAT5, murine T” value is 37.4 nM.

As for B13, the “EC50 (CD25+) pSTAT5, murine T” value was determined as 0.93 nM.

With B14, the “EC50 (CD25+) pSTAT5, murine T” value was 84.7 nM.

Regarding B15, the “EC50 (CD25+) pSTAT5, murine T” value came out at 9.38 nM.

For the molecule B16, the “EC50 (CD25+) pSTAT5, murine T” value turned out to be 35.2 nM.

The target of another test is T2, mouse IL-2 receptor βγc heterodimer …. As to the kind of experiment: SPR, equilibrium titration; IL-2Rγ on streptavidin chip, saturating IL-2Rβ in solution. On the procedure: (§1) Less than 100 response units (RU) of each ligand was immobilized to minimize mass transfer effects. […] Surface regeneration for all interactions was conducted using 15 s exposure to 1 M MgCl2 in 10 mM sodium acetate pH 5.5. SPR experiments were carried out in HBS-P+ buffer (GE Healthcare) supplemented with 0.2% bovine serum albumin (BSA) at 25° C. and all binding studies were performed at a flow rate of […] to prevent analyte rebinding. Data was visualized and processed using the Biacore T100 evaluation software version 2.0 (GE Healthcare). Equilibrium titration curve fitting and equilibrium binding dissociation (KD) value determination was implemented using GraphPad Prism assuming all binding interactions to be first order. Biolayer interferometry: binding data were collected in a Octet RED96 (ForteBio, Menlo Park, Calif.) and processed using the instrument's integrated software using a 1:1 binding model. […] Analyte proteins were diluted from concentrated stocks into binding buffer. After baseline measurement in binding buffer alone, the binding kinetics were monitored by dipping the biosensors in wells containing 100 nM of the designed protein (association) and then dipping the sensors back into baseline wells (dissociation).
(In general: Surface plasmon resonance follows binding to a sensor surface in real time, without labels.)
One may read the Kd as the concentration at which binding is half-saturated. A lower Kd goes with a tighter complex. Consider B1, for which binding was put at a Kd of 69.2 nM.

The molecule B2 gave a Kd of 39.1 nM.

As for B3, the Kd amounted to 925 nM.

Consider B4, for which the affinity, expressed as Kd, was 13.6 nM.

For B5, the Kd stood at 27.8 nM.

Consider B6, for which the Kd amounted to 71.5 nM.

As to B7, the affinity, expressed as Kd, was 80 nM.

In turn, B8 came in with a Kd of 38.2 nM.

As for B9, the affinity, expressed as Kd, was 64.8 nM.

As for B10, the Kd came out at 4.3 nM.

Take B11: the affinity, expressed as Kd, was 886 nM.

B12 yielded a Kd of 2650 nM.

With B13, binding was characterised by a dissociation constant (Kd) of 392 nM.

Molecule B14 showed a Kd of 5120 nM.

Turning to B15, the Kd came to 964 nM.

B16 returned a Kd of 3830 nM.

The target in a further test is T3, mouse IL-2 receptor β subunit (mIL-2Rβ). Description: SPR, equilibrium titration; biotinylated IL-2Rβ on streptavidin chip. On the procedure: as §1
B9: the Kd was found to be 402 nM.

Turning to B10, the Kd was 214 nM.

The molecule B11 displayed a Kd of 2600 nM.

On to B12, for which the Kd came out at 6800 nM.

Take B13: the affinity, expressed as Kd, was 10100 nM.

In the case of B14, the Kd came out at 45300 nM.

As for B15, the Kd stood at 68300 nM.

B16: the binding result is “no binding”.
